We go through 22 molecules from patent EP4644419A1 (Hangzhou Zhongmeihuadong Pharmaceutical Co., Ltd., dated 2025).

Where a chain is given by its changes, count along the chain named.

Assay [1] deals with T1, human CD112R antigen protein huCD112R-His (Acro Biosysterm, PVG-H52H4) (human, UniProt Q6DKI7 41-171).
T1 construct: purchased; also called human antigen protein; not shown: His tag
T1 sequence (looked up): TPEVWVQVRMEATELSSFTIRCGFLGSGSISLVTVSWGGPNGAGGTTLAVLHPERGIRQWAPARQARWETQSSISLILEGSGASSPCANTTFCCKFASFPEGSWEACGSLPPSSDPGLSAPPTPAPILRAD
As to the kind of experiment: ELISA, huCD112R-His coated on plate.

In assay [2] the target is T2, monkey antigen protein (monkey CD112R, Uniprot ID: A0A2K5WVV8) (monkey, UniProt A0A2K5WVV8 41-171).
T2 sequence: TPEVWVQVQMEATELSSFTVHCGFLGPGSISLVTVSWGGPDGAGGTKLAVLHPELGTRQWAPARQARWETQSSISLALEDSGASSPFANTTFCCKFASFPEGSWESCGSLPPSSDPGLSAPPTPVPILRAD
As to the kind of experiment: ELISA, monkey antigen protein (as Example 6.1).

B1: C117 (antibody, human IgG1, kappa, V domains shown)
VH: QVQLQQSGAELARPGASVKMSCKASGYTFTDYWMQWVKQRPGQGLEWIGAIFPGNGETRDTQKFKGRATLTADRSSSTAYIQLSSLTSEDSAVYYCATFNNYLDYWGQGTTLTVAS
VL: QIVLTQSPAIMSASPGEKVTMTCSASSSVSYMHWYQQKSGASPKRWIYDTSKLTSGVPARFSGSGSGTSYSLTISNMEAEDAATYYCQQWISNPYTFGGGTKLEIKR
With B1, the EC50 in assay [1] is 0.041 nM; in assay [2], 0.045 nM.

B2: C43 (antibody, human IgG1, kappa, V domains shown)
VH: QVQLQQPGAELVRPGTSVKLSCKASGNTFTTYWMHWVKQRPGQGHEWIGVIDASDSNTKYNQKFKGKATLTVDTSSSTAYMQLSSLTSEDSAVYYCARYYSGSSYGLDYWGQGTTLTVSS
VL: DIQMTQTASSLSASLGDRVTISCRASQDISNYLNWYQQKPDGTVKLLIYYTSRLHSGVPSRFSGSGSGTDYSLTITNLEQEDIASYFCQQGNMFPPTFGGGTKLEIKR
With B2, the EC50 is 0.051 nM in assay [1] and 0.044 nM in assay [2].

B3: C25 (antibody, human IgG1, kappa, V domains shown)
VH: B2 VH with T31S, N57K
VL: B2 VL with T76S, S85T, M93T, F94L
Take B3: the EC50 in assay [1] amounted to 0.052 nM; in assay [2] it was 3.8 nM.

B4: C69 (antibody, human IgG1, kappa, V domains shown)
VH: EVQLQQSGPVLVKPGASVKMSCKASGYRLTDYYMHWVKQSHGKSLEWIGIINPYNGGTSYNQKFKGKATLTVDKSSSTAYMELNSLTSDDSAVYYCARDSSNVGNDMDYWGQGTSVSVSS
VL: B2 VL with A8T, Q37L, T51S, T76N, S85T, M93T, F94L, P96R, K107R
With B4, the EC50 in assay [1] was found to be 0.023 nM; in assay [2], 0.051 nM.

B5: C33 (antibody, human IgG1, kappa, V domains shown)
VH: QVQLQQSGPELVKPGASVKISCKASGYTFTDYYINWVKQRPGQGLEWIGWIFPGSGSTYYNEKFKGKATPTVDKYSSTAYMLLSSLTSEDSAVYFCAREDYFDRGDCWGQGTSVTVSS
VL: QIVLTQSPAIMSASPGEKVTMTCSASSSINYMHWYQQKPGTSPKRWIYDTSKLASGVPARFSGSGSGTSYSLTISSMEAEDAATYYCHQRSSYPFTFGSGTKLEIKR
Consider B5, for which, in assay [1], the EC50 was 1.3 nM.

B6: C123 (antibody, human IgG1, kappa, V domains shown)
VH: EVQLVESGGGLVKPGGSLKLSCAASGFTFSNFAMSWVRQTPAMRLESVATIVNGGINTYYPDTVKGRFTVSRDNAKNTLYLQMSSLRSEDTAIYYCARHDDFLYYAMDYWGQGTSVTVSS
VL: QIVLTQSPAIMSASPGEKVTMTCSASSSVSYMFWYQQKPGSSPRLLIYDTSNLASGVPVRFSGSGSGTSYSLTISRLEAEDAATYYCQQWTSYPLTFGAGTKLDLKR
Consider B6, for which the EC50 stood at 0.035 nM in assay [1] and 0.056 nM in assay [2].

B7: C143 (antibody, human IgG1, kappa, V domains shown)
VH: B6 VH
VL: B6 VL with S30N
On to B7, for which the EC50 in assay [1] amounted to 0.025 nM; in assay [2], 0.04 nM.

B8: C110 (antibody, human IgG1, kappa, V domains shown)
VH: EVQLQQSGAELAKPGASVKLSCTVSGFNIKDTYIHWVKQRPEQGLEWIGGIDPAIGNTVSASKFQDKATITADTSSSTAYMQLSSLTSGDTAVYYCARERVHSNTLYYAMDYWGQGTSVTVSS
VL: DIVLTQSPASLAVSLGQRATISCRASKSVSISGYSYMHWYQQKPGQPPKLLIYLASNLESGVPARFSGSGSGTDFTLNIHPVEEEDAATYYCQHSRELPPTFGGGTKLEIKR
Consider B8, for which the EC50 in assay [1] turned out to be 0.032 nM; in assay [2], 0.034 nM.

B9: C9 (antibody, human IgG1, kappa, V domains shown)
VH: EVQLQQSGAELVKPGASVKLSCTASGFNIKDIYMHWLKQRPEQGLEWIGRIDPTNGNSEYDPRFRGKATLTADTSSNIAYLQLSSLTSEDTAVYYCARFGIYPYFDYWGQGTTLTVSS
VL: GIVMTQTPKFLLVSAGDRVTITCKASQSVNKAVVWYQQKPGQSPKLLISYASNRYTGVPDRFTGSGYGTDFTFSISTVQAEDLAVYFCQQDYSSPWTFGGGTKLEIKR
Take B9: the EC50 in assay [1] was 0.052 nM; in assay [2], 0.07 nM.

B10: C21 (antibody, human IgG1, kappa, V domains shown)
VH: B9 VH with I51V, R65Q
VL: B9 VL with G1S, S49N
As for B10, the EC50 in assay [1] turned out to be 0.066 nM; in assay [2] it was 0.068 nM.

B11: C116 (antibody, human IgG1, kappa, V domains shown)
VH: EVKLVESGGGLVQPGGSLKLSCAVSGFTFSSYTMSWVRQTPEKRLELVAKISNSGGSTNYPDTVKGRFTLSRDNVKNTLYLQMSSLKSEDTAIYYCTRYSWDVYAMDYWGQGTSVTVSS
VL: DIQMTQSPASLSASVGETVIITCRASENIYSYLAWYQQKQGKSPHLLVYNAETLVEGVPSRFSGSGSATQFSLKINSLQPEDFGTYYCQHHYGDPTFGGGTKLEIKR
Regarding B11, the results for the EC50 in assay [1] and in assay [2] were 0.025 nM and 0.061 nM, respectively.

B12: C51 (antibody, human IgG1, kappa, V domains shown)
VH: QVQLQQSGAELVRPGASVTLSCKASGYTFTDYEMHWVKQTPVHGLEWIGAIDPETGGTAYNQKFKGKAILTADKSSSTAYMELRSLTSEDSAVYYCTRWITTVVATLYYFDYWGQGTTLTVSS
VL: DIVMTQSQKFMSTSVGDRVSITCKASQNVRTAVAWYQQKPGQSPKALIYLASNRHTGVPDRFTGSGSGTDFTLTISNVQSEDLADYFCLQHWNYPLTFGAGTKLELKR
In the case of B12, the EC50 in assay [1] was determined as 0.228 nM; in assay [2] it was 0.224 nM.

B13: C61 (antibody, human IgG1, kappa, V domains shown)
VH: DVQLQESGPGLVKPSQSLSLTCSVTGYSITSNYYWNWIRQFPGNNLEWMGYISSDGTNNYNPSLRNRISITRDTSKNQFFLKLNSVTTEDTATYYCARGLRYGPWGQGTTLTVSS
VL: QLILTQSSSASFSLGASAKLTCTLSSQHSTYTIEWYQQQPLKAPKYVMEVKNDGSHRTGDGIPDRFSGSSSGADRYLSISNIQPEDEAIYICGVGDINNYIFGGGTKVTVLR
As for B13, the response in assay [1] was half-maximal at 0.089 nM (EC50).

B14: C119 (antibody, human IgG1, kappa, V domains shown)
VH: EVKLVESGGGLVQPGGSLKLSCVASGFTFNTYIMSWVRQTPEKRLELVADISNSGGNTYYSDTVKGRFTISRDNAKNTLYLQMSSLKSEDTAMYYCARPDNWDPFVYWGQGTLVTVSA
VL: DIQMTQSSSSFSVSLGDRVTITCKASEDIYARLAWYQQKPGNAPRLLISGATSLETGVPSRFSGSGSGKNYTLSITSLQTEDVGTYYCQQHWSTPWTFGGGTNLEIKR
With B14, the values for the EC50 in assay [1] and in assay [2] were 0.025 nM and 0.08 nM, respectively.

B15: C38 (antibody, human IgG1, kappa, V domains shown)
VH: QVQLQQSGAELMKPGASVKLSCKATGYTFTGYWIEWVKQRPGHGLEWIGEILPESGRTNYNEKFKGKATFTADTSSNTAYMQLSSLTTEDSAIYYCASLLFFDYWGQGTTLTVSS
VL: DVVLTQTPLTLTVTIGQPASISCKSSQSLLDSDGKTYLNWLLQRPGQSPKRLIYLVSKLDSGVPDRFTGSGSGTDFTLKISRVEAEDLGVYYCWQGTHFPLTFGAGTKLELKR
The molecule B15 displayed an EC50 in assay [1] of 0.064 nM.

B16: C118 (antibody, human IgG1, kappa, V domains shown)
VH: QVQLQQPGAELVKPGTSVKLSCKAAGYIFTSSWMHWVKQRPGQGLEWIGEINPSDGRTNYNEKFKNKATLTVDHSSSTAYMQLSSLTSEDSAVYYCASNADRAYYTMDYWGQGTSVTVSS
VL: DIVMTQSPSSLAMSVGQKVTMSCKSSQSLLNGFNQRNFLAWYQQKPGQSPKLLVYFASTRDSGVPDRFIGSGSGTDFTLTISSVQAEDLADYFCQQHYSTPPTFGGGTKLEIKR
As to B16, the EC50 in assay [1] is 0.029 nM; in assay [2], 0.057 nM.

B17: C112 (antibody, human IgG1, kappa, V domains shown)
VH: B16 VH with T16A, A25S, I28T, N66S
VL: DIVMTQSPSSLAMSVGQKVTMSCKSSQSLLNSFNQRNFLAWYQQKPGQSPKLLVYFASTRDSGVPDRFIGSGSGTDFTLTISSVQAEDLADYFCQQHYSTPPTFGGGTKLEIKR
With B17, the figures for the EC50 in assay [1] and in assay [2] were 0.028 nM and 0.055 nM, respectively.

B18: C6 (antibody, human IgG1, kappa, V domains shown)
VH: QVHLHQSGPELVKPGASVKISCKASGYTFTAYYINWVKQRPGQGLEWIGWIFPGSDSTYYNEKFKGRATLTVDKSSSTAYMLLNSLTSEDSAVYFCARDGELRGPFDYWGQGTTLTVSS
VL: DIQMTQSPSSLSASLGGKVTITCKASQDINKYIAWYQHKPGKSPRLLIHYTSTLQAGIPSRFSGSGSGRDYSFSISNLEPEDSATYYCLQYDNLLTFGGGTKLEIKR
As for B18, the EC50 in assay [1] came out at 0.055 nM; in assay [2] it was 0.058 nM.

B19: C44 (antibody, human IgG1, kappa, V domains shown)
VH: QVQLQQSGPELMKPGASLKISCKASGYTFTDSYINWVKQRPGQGLEWIGWIFPGSGSTYYNEKFKGTATLTVDKSSSTAYMLLSSLTSEDSAAYFCARDGGLRGPFDYWGQGTTLTVSS
VL: B18 VL with S43G, A56S, S72F, P80S, S83I, N93H
Take B19: the EC50 in assay [1] came out at 0.053 nM; in assay [2], 0.076 nM.

B20: C45 (antibody, human IgG1, kappa, V domains shown)
VH: B18 VH with H5Q, E10D, A16V, A31D, D56G, S57T, R67K, N84S, E101G
VL: B18 VL with S26N, H38Y, S43G, A56P, G57D, Y71F, S83I, N93Y, L95Y
Take B20: the EC50 in assay [1] came to 0.059 nM; in assay [2], 0.114 nM.

B21: C121 (antibody, human IgG1, kappa, V domains shown)
VH: EVQLQQSGPEVVKPGASVKISCKASGNTFTDYFINWVKQSHGKSLEWIGDINPDNGGTNYNQKFKGKATLTVDKSSGTAFMGLRSLTSEDSAVYYCATLYFDYWGQGTSLTVSS
VL: DIVMTQSPSSLSVSAGEKVTMSCKSSQSLLNSGNQKNYLAWYQQKPGQPPKLLIYGASTRESGVPDRFTGSGSGTDFTLTISSVQAEDLAVYYCQNAHSSPYTFGGGTRLEIKR
In the case of B21, the EC50 came to 0.037 nM in assay [1] and 0.055 nM in assay [2].

B22: C122 (antibody, human IgG1, kappa, V domains shown)
VH: B21 VH with S40R, I51V, Y100F, Y103S, S109T
VL: B21 VL with S12N, V91L, R109K
In the case of B22, the EC50 in assay [1] worked out at 0.03 nM; in assay [2], 0.031 nM.
